B1: antibody D12D8 (murine chimeric anti-FGFR2 antibody) (antibody, human IgG1, kappa, V domains shown)
VH: QVQLQQSGAELARPGASVKLSCKASGYTFTNYGISWVKQRTGQGLEWIGEIYPRSGNTYYNEKFKGKATLTADKSSSTAYMELRSLTSEDSAVYFCARGDYSNSDYWGQGTTLTVSS
VL: DIQMTQTTSSLSASLGDRVTISCRASQDITDHLNWYQQKPDGTVKLLIYYTSRLHSGVPSRFSGSGSGTDYSLTISNLEQEDIATYFCQQGNTLPRTFGGGTKLEIKR
B2: antibody F6B6 (murine chimeric anti-FGFR2 antibody) (antibody, human IgG1, kappa, V domains shown)
VH: QVQLKQSGPGLVQPSQSLSITCTVSGFSLTNYGVHWVRQSPGKGLEWLGVIWSDGSTDYDAAFISRLSISTDNSKSQVFFKMNSLQAADTAIYYCARKGDYDYDNYAMDYWGQGTSVTVSS
VL: DVVITQSPATLSVTPGDSVSLSCRASQSISNNLHWYQQKSHESPRLLIKYASQSISGIPSRFSGSGSGTDFTLSINSVETEDFGMYFCQQSNSWPLTFGAGTKLELKR
B3: antibody A1B2 (murine chimeric anti-FGFR2 antibody) (antibody, human IgG1, kappa, V domains shown)
VH: EVQLQQSGAELVRPGASVKLSCTASGFNIKDYYMHWVKQRPEQGLEWIGRIDPEDGDTEYAPKFQGKATMTADTSSNTAYLQLSSLTSEDTAVYYCTTYYYVSTYEDYWGQGTTLTVSS
VL: QIVLTQSPAIMSASLGEEITLTCSASSSVSHMHWYQQKSGTSPKLLIYSTSNLASGVPSRFSGSGSGTFYSLTISSVEAEDAADYYCHHWSSWTFGGGTKLEIKR
B4: antibody G11B8 (murine chimeric anti-FGFR2 antibody) (antibody, human IgG1, kappa, V domains shown)
VH: EVQLQQSGPELVKPGASVKIPCKASGYTFTDYNMDWVKQSHGKSLEWIGDINPKNGETFYNQKFKGKATLTVDRSSNTAYMELRSLTSEDTAVYFCAKRDLNWYFDYWGQGTTLTVSS
VL: DIQMTQSSSYLSVSLGGRVTITCKASDHINNWLAWYQQKPGNAPRLLISGATSLETGVPSRFSGSGSGKDYTLSITSLQTEDVATYYCQQYWSTPWTFGGGTKLEIKR
B5: antibody H3F7-a (murine chimeric anti-FGFR2 antibody) (antibody, human IgG1, kappa, V domains shown)
VH: EVQLQQSGPELVKPGASVKIPCKASGYTFTDYNMDWVKQSHGKSLEWIGDINPKNGETFYNQKFKGKATLTVDRSSSTAYMELRSLTSEDTAVYFCAKRDLNWYFDYWGQGTTLTVSS
VL: DIQMTQSSSYLSVSLGGRVTITCKASDHINNWLAWYQQKPGNAPRLLISGATSLETGVPSRFSGSGSGKDYTLSITSLQTEDVATYYCQQYWSTPWTFGGGTKLEIKR
B6: humanized monoclonal antibody huA1B2-3 (antibody, human IgG1, kappa, V domains shown)
VH: EVQLVQSGAEVKKPGATVKISCKASGFNIKDYYMHWVQQAPGKGLEWMGRIDPEDGDTEYAEKFQGRVTITADTSTNTAYMELSSLRSEDTAVYYCTTYYYVSTYEDYWGQGTTVTVSS
VL: EIVLTQSPATLSLSPGERATLSCRASSSVSHMHWYQQKPGQAPKLLIYSTSNLASGVPARFSGSGSGTDYTLTISSLEPEDFAVYYCHHWSSWTFGGGTKVEIKR
B7: bemarituzumab (antibody, human IgG1, kappa, V domains shown)
VH: QVQLVQSGAEVKKPGSSVKVSCKASGYIFTTYNVHWVRQAPGQGLEWIGSIYPDNGDTSYNQNFKGRATITADKSTSTAYMELSSLRSEDTAVYYCARGDFAYWGQGTLVTVSS
VL: DIQMTQSPSSLSASVGDRVTITCKASQGVSNDVAWYQQKPGKAPKLLIYSASYRYTGVPSRFSGSGSGTDFTFTISSLQPEDIATYYCQQHSTTPYTFGQGTKLEIKR

Columns and labels:
[1] = target: human FGFR2 on cells (KATO-III gastric cancer cells; SNU-16 cells; Ba/F3 cells engineered to express human FGFR2b) (human) (UniProt P21802); assay: flow cytometry on KATO-III cells expressing human FGFR2
[2] = target: human FGFR2-his protein (huFGFR2-his) (human); assay: BLI epitope binning on FGFR2-his (HISK sensor), 200 nM antibodies; competitor: huA1B2-3
[3] = target: human FGFR2-his protein (huFGFR2-his) (human); assay: BLI epitope binning on FGFR2-his (HISK sensor), 200 nM antibodies; competitor: huG11B8-5
[4] = target: human FGFR2-his protein (huFGFR2-his) (human); assay: BLI epitope binning on FGFR2-his (HISK sensor), 200 nM antibodies; competitor: bemarituzumab

Chain of human FGFR2-his protein (huFGFR2-his) (human) (chain, as listed by the source limits assumed): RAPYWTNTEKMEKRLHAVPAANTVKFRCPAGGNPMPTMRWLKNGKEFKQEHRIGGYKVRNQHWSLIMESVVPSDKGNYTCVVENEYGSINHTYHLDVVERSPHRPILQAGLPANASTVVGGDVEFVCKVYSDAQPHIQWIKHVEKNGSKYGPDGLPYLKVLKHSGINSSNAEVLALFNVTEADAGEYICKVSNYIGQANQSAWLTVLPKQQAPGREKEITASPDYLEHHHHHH

Binder	EC50 [1] [nM]	epitope binning value (%), not given [2] [%]	epitope binning value (%), not given [3] [%]	epitope binning value (%), not given [4] [%]
B1	7.37			
B2	14.4			
B3	0.336			
B4	0.949			
B5	1.09			
B6		10.2	42.6	95.7
B7		106	36.8	7.8

From patent EP4786494A1
